From patent publication US20220054588A1, “USE OF SAP FOR THE TREATMENT OF EUROTIOMYCETES FUNGI INFECTIONS” (HUMANITAS MIRASOLE S.P.A., priority 2018, published 2022)

B1: SAP: Serum Amyloid P component, species not printed at the place; murine Sap per legend b89 for b91, unstated for b97 (protein, UniProt P12246 21-224, looked up)
Serum amyloid P-component: QTDLKRKVFVFPRESETDHVKLIPHLEKPLQNFTLCFRTYSDLSRSQSLFSYSVKGRDNELLIYKEKVGEYSLYIGQSKVTVRGMEEYLSPVHLCTTWESSSGIVEFWVNGKPWVKKSLQREYTVKAPPSIVLGQEQDNYGGGFQRSQSFVGEFSDLYMWDYVLTPQDILFVYRDSPVNPNILNWQALNYEINGYVVIRPRVWD
B2: murine PTX3: Recombinant murine PTX3 purified from Chinese hamster ovary cells (protein)
chain: ETSDDYELMYVNLDNEIDNGLHPTEDPTPCDCRQEHSEWDKLFIMLENSQMREGMLLQATDDVLRGELQRLRAELGRLAGGMARPCAAGGPADARLVRALEPLLQESRDASLRLARLEDAEARRPEATVPGLGAVLEELRRTRADLSAVQSWVARHWLPAGCETAIFFPMRSKKIFGSVHPVRPMKLESFSTCIWVKATDVLNKTILFSYGTKWNPYEIQLYLSSQSLVLVVGGKENKLAADTVVSLGRWSHLCGTWSSEQGSMSLWANGELVATTVEMAKSHSVPEGGLLQIGQEKNGCCVGGGFDESLAFSGRITGFNIWDRVLSEEEIRASGGVESCHIRGNVVGWGVTEIQAHGGAQYVS

How the values were obtained:
[1] = test system: neutrophils in whole blood; experiment: Whole blood phagocytosis of A. fumigatus conidia by mouse neutrophils (FACS), with CD11b expression; type: cell-based, mice; conditions: SAP pre-opsonised conidia; for phagocytosis by neutrophils: 1 and 20 min
Experimental: FIGS. 7a and 7b depict the effect of SAP on A. fumigatus phagocytosis by neutrophils. a), b), FACS analysis (out of 3 performed) of phagocytosis (a) and CD11b internalization (b) in neutrophils after challenge with fluorescein-labelled AF conidia (5×10^6/100 μl of blood) opsonized or not with Sap is shown. a) neutrophil phagocytosis in whole blood of wt and Apcs^−/− mice. b) CD11b expression in neutrophils of a. a) and b) Mean±SEM;*, P<0.05;**, P<0.01;***, P<0.005;****, P<0.0005 (unpaired t-test).
FIG. 7c depicts the effect of human SAP on phagocytic activity. FACS analysis of neutrophil phagocytosis in blood of wt and Apcs^−/− mice after exposure with fluorescein-labelled AF conidia (5×10^6/100 μl of blood) opsonized or not with SAP. Figure refers to 2 experiments performed.***, P<0.005;***, P<0.0005 (unpaired t-test).
Cells and in vitro phagocytic activity. Phagocytosis assay in whole blood of A. fumigatus conidia by mouse and human neutrophils was performed as described (Moalli et al., 2010). Briefly, conidia (1×10^9) were labelled (1 h, r.t.) with FITC (Sigma-Aldrich; 5 mg/ml in DMSO), and eventually opsonized (1 h, r.t) with murine SAP (100 μg/ml; […]) and PTX3 (50 μg/ml; 1.1 μM). An amount of 1×10^7 FITC-conidia were added to 200 μl of mouse whole blood (collected with heparin) and incubated for 1, 5, 10, 20 or 30 min at 37° C. in an orbital shaker. Samples were immediately placed on ice and ACK lysis solution was added to lyse erythrocytes. Murine neutrophils were analysed by BD FACS Canto™ II Flow Cytometer (BD Biosciences) as previously described, and frequency and/or mean fluorescence intensity (MFI) of FITC neutrophils and CD11b expression were reported.

U937 cells = experiment: Phagocytosis of A. fumigatus conidia by U937 cells overexpressing DC-SIGN; type: cell-based, human; conditions: U937 stably transfected for DC-SIGN and control cells
Description: FIG. 9 depicts how SAP effect on phagocytosis is independent from its interaction with DC-SIGN. a) detection of DC-SIGN expression in transfected U937 cells by FACS. Untransfected cells and an irrelevant IgG were used as control. Mean±SD of a quadruplicate experiment is shown. b) FACS analysis of fluorescein-labelled AF conidia (1×10^7) phagocytosis by U937 cells (1×10^5) overexpressing DC-SIGN.
U937 cell lines [control (ATCC® CRL-1593.2™) and transduced with human DC-SIGN (ATCC® CRL-3253™)] were cultured in RPMI-1640 medium containing 5% FCS, 2 mM L-glutamine, 0.1 mM non-essential amino acids (all from Lonza-BioWhittaker™) and 0.05 mM 2-mercaptoethanol (BIO-RAD). DC-SIGN expression was ascertained by FACS using a rabbit polyclonal Ab (#ab5715, 5 μg/ml; AbCam, UK) and an Alexa Fluor® 488-conjugated goat anti rabbit (2 μg/ml; ThermoFisher-Molecular Probes). Phagocytosis of FITC-labelled A. fumigatus conidia (1×10^7) by U937 cells (1×10^5) was performed as above described above.

A. fumigatus conidia = experiment: FACS binding of biotin-conjugated murine SAP to A. fumigatus conidia, with competition; set-up: species or system Aspergillus fumigatus; conditions: Sap 0.1-10 μg/ml; Ptx3 50 μg/ml; anti-Sap monoclonal antibody detection
Experimental: FIG. 1 depicts the interaction of SAP with A. fumigatus conidia in mice. a) induction of SAP circulating levels after i.t. injection of 5×10^7 A. fumigatus (AF) conidia; LPS, 0.8 mg/Kg. Mean±SD. c) FACS analysis of binding of biotin-conjugated (b-) murine SAP (Sap; 10 μg/ml) to viable dormant or germinating conidia of AF (1×10^8). Human SAP (50 μg/ml) and CRP (50 μg/ml) were also used. Mean±SD of one quadruplicate experiment of two performed.
FIG. 10 depicts the susceptibility to A. fumigatus associated with single or double deficiency for SAP and PTX3. a and b, survival of wt and Apcs^−/−, Ptx3^−/− and Apcs^−/−, Ptx3^−/− mice after i.t. injection of 1×10^8 (a) or 5×10^7 (b) conidia. a, wt, n=9 (a, b); n=9 (a, b); Ptx3^−/−, n=7 (a) or n=10 (b); Ptx3^−/−, n=5 (a) or n=12 (b). a, b, P<0.05, wt vs. Apcs^−/− P<0.01 wt vs. Apcs^−/−, Ptx3^−/−; P=0.06, Apcs^−/−, Ptx3^−/− vs. Ptx3^−/− (Mantel-Cox test). a) Curves of wt and Apcs^−/− refer to the same ones shown in FIG. 2a-c FACS analysis of Sap (range from 0.1 to 10 μg/ml) binding to viable AF conidia (1×10^8) in presence of Ptx3 (50 μg/ml). An anti-Sap monoclonal antibody (non-reactive to Ptx3) was used. Mean±SD of a triplicate. **, P<0.01;***, P<0.005;****, P<0.0001 (unpaired t-test).
Binding of SAP. Conidia of A. fumigatus and A. flavus (1×10^8 CFU) were cultured 4 and 16 h under static condition in Sabouraud medium to respectively allow conidia swelling and germination. Blastospores and yeast of Candida albicans were prepared as previously described (Santus et al., 2017). Yeast (8×10^6/ml) were incubated at 37° C. for hyphal induction. Formation of hyphae was evaluated under a microscope at different time points until its amount was assessed at 95%. […] After extensive washing, samples were incubated (30 min, r. t.) with Alexa Fluor® 647-conjugated streptavidin and binding was evaluated by FACS as frequency and MFI and visualized by confocal microscopy as described. […]

Molecule	CD11b internalization in neutrophils ([1]; Apcs−/− neutrophils)	phagocytosis by neutrophils ([1]; Apcs−/− whole blood)	CD11b internalization in neutrophils ([1]; wt neutrophils)	phagocytosis by neutrophils ([1]; wt whole blood)	SAP-mediated enhancement of phagocytosis, DC-SIGN transfected versus control cells (U937 cells)	competition of murine SAP binding to conidia (A. fumigatus conidia)
B1	restored CD11b internalization	rescued the defect	prompted it	potentiated phagocytosis	similar	–
B2	–	–	–	–	–	competed
